In PMC4560640:

Molecular target: base subcomplex, heterologously expressed in E. coli (S. cerevisiae) (UniProt P38764)

Ubp6, wild type (from UniProt P43593 1-499) (enzyme)
Ub-AMC cleavage activity of Ubp6 with purified base against Ubp6 alone: 300 fold
